Source: patent US20200024348A1 (Alector, published 2020)
Where a chain is given by its changes, count along the chain named. Names and notes keep the numbering of the source.

B1: S-60-3 (antibody, IgG1, V domains shown)
VH: QVQLQESGPGLVKPSETLSLTCAVSGYSISSGYYWGWIRQPPGKGLEWIGTIYHSGSTYYNPSLKSRVTISVDTSKNQFSLKLSSVTAADTAVYYCARQGSIKQGYYGMDVWGQGTTVTVSS
VL: DIVMTQSPLSLPVTPGEPASISCRSSQSLLRSNGYNYLDWYLQKPGQPPQLLIYLGSNRVSGVPDRFSGSGSGTDFTLKISRVEAEDVGVYYCMQQQETPLTFGGGTKVEIK
notes: Tested on the huIgG1 (WT) backbone
B2: S-60-24 (antibody, IgG1, V domains shown)
VH: B1 VH
VL: B1 VL with P18S, S28G, P48S, V60A, T99A
notes: as for B1
B3: S-60-15.1 [N33T] as huIgG1 (antibody, V domains shown)
VH: B1 VH
VL: B1 VL with N33T, P48S, V60A, V83A, T99A
notes: huIgG1 without the LALAPS mutations

Experiments:
[1] = target: T1, human Sortilin (SORT1), full-length untagged, expressed on cells (human, UniProt Q99523 78-831); experiment: cell-based or functional assay
T1 sequence: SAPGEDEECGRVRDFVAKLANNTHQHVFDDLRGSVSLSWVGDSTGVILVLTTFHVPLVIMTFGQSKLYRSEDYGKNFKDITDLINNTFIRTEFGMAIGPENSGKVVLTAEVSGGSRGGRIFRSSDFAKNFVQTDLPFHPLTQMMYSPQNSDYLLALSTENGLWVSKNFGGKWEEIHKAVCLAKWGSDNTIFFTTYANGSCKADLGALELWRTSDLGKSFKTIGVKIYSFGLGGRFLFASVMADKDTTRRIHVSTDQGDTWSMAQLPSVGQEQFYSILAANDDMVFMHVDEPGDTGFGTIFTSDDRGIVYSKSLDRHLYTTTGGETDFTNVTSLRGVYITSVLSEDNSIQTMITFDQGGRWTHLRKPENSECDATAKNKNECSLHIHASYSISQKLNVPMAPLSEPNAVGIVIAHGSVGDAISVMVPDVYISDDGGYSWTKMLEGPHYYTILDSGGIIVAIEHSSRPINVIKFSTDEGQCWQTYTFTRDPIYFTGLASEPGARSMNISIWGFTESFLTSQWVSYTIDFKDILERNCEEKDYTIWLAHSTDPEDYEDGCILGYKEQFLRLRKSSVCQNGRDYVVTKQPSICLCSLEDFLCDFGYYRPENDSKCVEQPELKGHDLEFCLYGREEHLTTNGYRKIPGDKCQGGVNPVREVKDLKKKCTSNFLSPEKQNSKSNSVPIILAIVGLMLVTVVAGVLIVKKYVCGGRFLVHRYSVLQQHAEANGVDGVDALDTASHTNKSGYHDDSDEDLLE

[2] = target: T1, human Sortilin (SORT1), full-length …; experiment: cell-based or functional assay; remark: listed apart in the source
[3] = target: T1, human Sortilin (SORT1), full-length …; experiment: FACS on HEK293T cells expressing human SORT1, huIgG1; average of two experiments
Description: (§1) For the binding assay, stable HEK293T cells expressing human SORT1 were harvested by trypsinization, washed in PBS, counted and plated on 96-well u-bottom plates at 1×10⁵ cells/well. The plates were spun at 1,400 rpm for 3 minutes and primary anti-SORT1 or control antibodies were added in FACS buffer (PBS+2 FBS) and incubated on ice for one hour. Cells were subsequently centrifuged as before and washed thrice with FACS buffer. Cells were then incubated with anti-human APC conjugated secondary antibody (BD Biosciences) in FACS buffer for 30 minutes on ice. Cells were again washed three times with FACS buffer and analyzed on a BD FACS Canto or an Intellicyt Flow Cytometer. Binding was measured as median fluorescent intensity (MFI) in the […] channel of the GFP positive cell population.
All antibodies were tested on the huIgG1 backbone.

[4] = target: T1, human Sortilin (SORT1), full-length …; experiment: cell-based or functional assay; remark: listed apart in the source
[5] = target: T1, human Sortilin (SORT1), full-length …; experiment: cell-based or functional assay; remark: listed apart in the source
[6] = target: T1, human Sortilin (SORT1), full-length …; experiment: FACS on HEK293T cells expressing human SORT1
Description: as §1

[7] = target: T2, histidine-tagged human SORT1 (R&D Systems) (human, UniProt Q99523 78-755); experiment: BLI, complete kinetic analysis with multiple concentrations of SORT1
T2 construct: Bought recombinant protein; also called His-tagged human SORT1; not shown: histidine tag
T2 sequence: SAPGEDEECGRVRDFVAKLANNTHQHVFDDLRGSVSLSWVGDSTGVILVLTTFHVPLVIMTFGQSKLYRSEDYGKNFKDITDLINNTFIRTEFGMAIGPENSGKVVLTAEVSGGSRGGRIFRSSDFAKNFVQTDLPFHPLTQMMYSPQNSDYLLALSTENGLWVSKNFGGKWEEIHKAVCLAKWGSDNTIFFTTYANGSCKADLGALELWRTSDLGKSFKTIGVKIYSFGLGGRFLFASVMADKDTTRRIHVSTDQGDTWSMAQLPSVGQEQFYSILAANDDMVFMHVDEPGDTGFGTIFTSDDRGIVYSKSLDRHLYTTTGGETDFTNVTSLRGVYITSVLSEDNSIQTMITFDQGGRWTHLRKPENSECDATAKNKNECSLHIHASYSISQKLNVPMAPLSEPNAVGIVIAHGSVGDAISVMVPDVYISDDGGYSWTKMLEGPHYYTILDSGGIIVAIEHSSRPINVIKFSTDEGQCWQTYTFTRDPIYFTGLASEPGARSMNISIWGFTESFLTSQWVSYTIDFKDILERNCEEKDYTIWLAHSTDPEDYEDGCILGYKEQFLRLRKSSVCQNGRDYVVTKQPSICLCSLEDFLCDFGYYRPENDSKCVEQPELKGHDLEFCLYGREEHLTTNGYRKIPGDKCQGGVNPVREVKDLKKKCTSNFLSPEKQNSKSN

Binder | DR EC50 (M): down-regulation of cell surface SORT1, U251 cells, FACS [1] [M] | DR at 0.6 nM antibody (IgG): percent SORT1 downregulation, U251 cells [1] [%] | DR at 1.25 nM antibody (IgG): percent SORT1 downregulation, U251 cells [2] [%] | Kd [3] [nM] | DR at 0.63 nM antibody (IgG): percent SORT1 downregulation, U251 cells [4] [%] | % DR at 150 nM antibody (IgG), U251 cells [5] [%] | EC50 (pM): downregulation (DR) of cell surface SORT1, U251 cells, FACS [5] [pM] | Kd [6] [nM] | Kd [7] [nM]
B1 | 2.69e-10 | 43 | 61.5 | 0.856 |  |  |  |  | 
B2 |  |  | 65.2 | 0.755 | 81.5 |  |  |  | 
B3 |  |  |  |  |  | 69.3 | 72.6 | 0.365 | 0.298
